Each block holds one molecule with its values, some of them ahead of it.
Assays:
[1] = system: BJAB cells; test: BJAB apoptosis induced by anti-CD95 (anti-APO1) antibody; assay type: cell-based, human; details: BJAB stably expressing the mutant vs control plasmid, PI staining
Method: The total amount of transfected plasmid DNA was adjusted with pcDNA3 plasmid to be the same within individual experiments. After transfection, 293T cells were harvested at different times and lysed with 0.2% NP-40 isotonic lysis buffer [N. Inohara et al., Proc. Natl. Acad. Sci. U.S.A. 94:10717-10722 (1997)]. The B lymphocyte-derived BJAB cell line was stably trasnfected by electroporation with pcDNA3 or pcDNA3-Flag-RICK (K38M). After selection with […] (1 μg/ml), bulk cell lines were tested for RICK protein expression with anti-Flag antibody by flow cytometric analysis. […]
Apoptosis Assays: 5×10^5 293T cells were co-transfected with 0.2 μg of pcDNA3-β-gal plus each expression plasmid in triplicate by the calcium phosphate method as reported [N. Inohara et al., Proc. Natl. Acad. Sci. U.S.A. 94:10717-10722 (1997)]. […] At least 300 hundred blue-staining cells were counted. BJAB apoptosis induced by anti-Apol mAb was determined by flow cytometric analysis of nuclei stained with propidium iodide as described [R. Merino et al., J. Immunol. […] Statistical significance was determined by one-way ANOVA followed by Student-Neuman-Keuls post-doc comparisons.

[2] = system: 293T cells; test: Apoptosis assay, RICK co-transfection; assay type: cell-based, human; details: 293T cells
Method: (§1) The total amount of transfected plasmid DNA was adjusted with pcDNA3 plasmid to be the same within individual experiments. After transfection, 293T cells were harvested at different times and lysed with 0.2% NP-40 isotonic lysis buffer [N. Inohara et al., Proc. Natl. Acad. Sci. U.S.A. 94:10717-10722 (1997)]. The B lymphocyte-derived BJAB cell line was stably trasnfected by electroporation with pcDNA3 or pcDNA3-Flag-RICK (K38M). After selection with […] (1 μg/ml), bulk cell lines were tested for RICK protein expression with anti-Flag antibody by flow cytometric analysis. For immunoprecipitation, 1 mg of soluble protein was incubated with 10 μg/ml of polyclonal anti-Flag, anti-myc or control antibody overnight at 4° C. and tagged proteins were immunoprecipitated with Protein A-Sepharose 4B (Zymed Laboratories Inc.). Immunoprecipitated proteins or total lysates were subjected to 12% SDS-polyacrylamide electrophoresis and immunoblotted with monoclonal antibodies (mAb) to HA (Boeringer Mannheim) or Flag (Kodak).
Apoptosis Assays: 5×10^5 293T cells were co-transfected with 0.2 μg of pcDNA3-β-gal plus each expression plasmid in triplicate by the calcium phosphate method as reported [N. Inohara et al., Proc. Natl. Acad. Sci. U.S.A. 94:10717-10722 (1997)]. In some experiments, 20 μM of the caspase inhibitor zVAD-fmk (Enzyme Systems Products) or 12.5 μl of medium from […] cells producing Fas ligand (Immunex Corporation, Seattle, Wash.) was added at 8 hrs after transfection. At 18 or 24 hours after transfection, cells were fixed, stained for β-galactosidase as described [N. Inohara et al., Proc. Natl Acad. Sci. U.S.A. 94:10717-10722 (1997)] and assayed for morphological features of apoptosis. At least 300 hundred blue-staining cells were counted. BJAB apoptosis induced by anti-Apol mAb was determined by flow cytometric analysis of nuclei stained with propidium iodide as described [R. Merino et al., J. Immunol. 155:3830-3838 (1995)]. Statistical significance was determined by one-way ANOVA followed by Student-Neuman-Keuls post-doc comparisons.

[3] = target: T1, caspase-8 (Homo sapiens, UniProt Q14790); test: Caspase enzymatic assay (Ac-DEVD-AMC) after RICK co-transfection; assay type: biochemical; details: immunoprecipitated caspase-8, Ac-DEVD-AMC substrate
T1 construct: expressed in transfected cells; host or cells: human 293T cells
Method: Caspase Enzymatic Assay: The human FADD cDNA was cloned into the BamHI and XhoI sites of pcDNA3-myc to produce C-terminal myc-tagged FADD. 5×10^6 293T cells were transfected with 5 μg of pcDNA3, pcDNA3-caspase-8-AU1 or pcDNA3-caspase-8-mt-AU1 [N. Inohara et al., Proc. Natl. Acad. Sci. U.S.A. 94:10717-10722 (1997)] plus 5 μg of pcDNA3, pcDNA3-FADD-myc or pcDNA3- Flag-RICK. At 16 hours after transfection, cells were harvested and lysed with NP-40 buffer [N. Inohara et al., Proc. Natl. Acad. Sci. U.S.A. 94:10717-10722 (1997)]. AU1-tagged proteins were immunoprecipitated with mAb to AU1 and the Ac-DEVD-AMC cleavage activity was measured as previously described [N. Inohara et al., Proc. Natl. Acad. Sci. U.S.A. 94:10717-10722 (1997)].

[4] = target: T2, CLARP (Homo sapiens, UniProt O15519); test: Co-immunoprecipitation of RICK with CLARP; assay type: binding
Method: as §1

[5] = system: caspase-1, caspase-2, caspase-3, caspase-4, caspase-8, CED-3, CED-4, Bcl-XL, TRAF2, c-IAP-1, c-IAP-2 or RAIDD; test: Association of RICK with other apoptosis regulatory proteins; assay type: binding; details: 293T lysates
Method: as §1

[6] = target: T3, FADD (Homo sapiens, UniProt Q13158); test: In vitro phosphorylation of recombinant FADD by RICK immunoprecipitates; assay type: biochemical; details: immunoprecipitates from 293T cells, 5 μM [γ-32P]ATP
T3 construct: made in house
T3 sequence (Q13158 1-208): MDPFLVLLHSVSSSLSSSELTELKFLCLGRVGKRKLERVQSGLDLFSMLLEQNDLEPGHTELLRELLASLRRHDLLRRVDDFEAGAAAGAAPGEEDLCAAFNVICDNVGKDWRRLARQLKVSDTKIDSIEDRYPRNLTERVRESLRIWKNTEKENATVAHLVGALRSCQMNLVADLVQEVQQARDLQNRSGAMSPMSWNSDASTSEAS
Source text: CIPERK proteins in total lysate were detected by immunoblotting with mAb to Flag (middle panel). Recombinant FADD on the same filter used in (A) was detected by immunoblotting, with rabbit polyclonal anti-(His)6 antibody (lower panel). Note CIPERK was autophosphorylated. The estimated molecular size is shown on the left [293T cells were transfected with vector control or plasmid expressing Flag-CIPERK (WT) or Flag-CIPERK-K38M (mt), and then CIPERK proteins were immunoprecipitated by mAb to Flag and incubated with recombinant FADD and 5 μM [γ-^32P]ATP].

[7] = system: NF-KB; test: NF-KB activation by RICK; assay type: cell-based, human; details: 293T cells
[8] = target: T3, FADD; test: FADD phosphorylation in transfected cells; assay type: cell-based; details: 293T cells, co-expression with CLARP
Method: Therefore, next it was determined whether expression of CIPERK can regulate the phosphorylation of FADD in vivo. Expression plasmids producing HA-CLARP, Flag-CIPERK and AU1-FADD were transiently transfected into 293T cells, and the expression of FADD was monitored by immunoblotting with anti-AU1 antibody. Transfection of plasmids producing either FADD or FADD plus CIPERK induced the expression of two closely migrating AU1-tagged FADD proteins of ˜27 kDa (FIG. 12A). In contrast, co-expression of FADD, CIPERK and CLARP induced the expression of two additional FADD bands migrating at ˜30 kDa (FIG. 12A), previously shown to represent phosphorylated FADD [B. Z. Stanger et al., Cell 81:513-523 (1995)]. […] The increased induction of FADD phosphorylation by CLARP was specific in that was not observed when FADD was co-expressed with only CIPERK and caspase-8 (FIG. 12A). Furthermore, FADD phosphorylation was induced by ectopic expression of CD95 (FIG. 12B), a stimulus known to induce CD95 oligomerization and activation [J. P. Medema et al., EMBO J. 16:2794 -2804 (1997); B. Z. Stanger et al., Cell 81:513-523 (1995)].

[9] = target: T2, CLARP; test: Co-immunoprecipitation of RICK with CLARP; assay type: binding; parameters: expressed in transfected cells; host or cells: human 293T cells; details: CLARP-C (residues 246-480)
Method: as §1

[10] = target: T4, Flag-tagged RICK (RIP-like interacting CLARP kinase), pcDNA3-Flag-RICK (human, UniProt O43353 11-540, limits assumed); test: anti-Flag immunoprecipitation from co-transfected 293T cells, anti-HA immunoblot
T4 construct: Entire open reading frame of RICK, expressed in 293T cells; also called CIPERK; Flag-CIPERK; not shown: N-terminal Flag tag
T4 sequence (O43353 other isoform, or with tags, fused parts or gaps limits assumed): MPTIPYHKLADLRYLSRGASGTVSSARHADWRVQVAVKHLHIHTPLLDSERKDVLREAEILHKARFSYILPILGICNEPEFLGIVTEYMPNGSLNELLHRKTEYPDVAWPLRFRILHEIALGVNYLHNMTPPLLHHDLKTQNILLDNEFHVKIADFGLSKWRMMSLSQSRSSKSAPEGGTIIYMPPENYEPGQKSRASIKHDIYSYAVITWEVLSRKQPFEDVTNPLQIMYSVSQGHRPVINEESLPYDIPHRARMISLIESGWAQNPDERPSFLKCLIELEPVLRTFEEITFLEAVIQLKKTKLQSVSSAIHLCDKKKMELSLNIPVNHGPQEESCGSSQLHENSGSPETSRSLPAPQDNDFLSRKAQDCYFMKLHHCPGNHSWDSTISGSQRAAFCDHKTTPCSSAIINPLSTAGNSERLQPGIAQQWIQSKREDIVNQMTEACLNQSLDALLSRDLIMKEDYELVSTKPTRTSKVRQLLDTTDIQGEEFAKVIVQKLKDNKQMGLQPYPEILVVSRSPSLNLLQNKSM

Molecule: RICK-K38M: RICK ATP-binding site mutant, lysine at position 38 replaced by methionine
- sensitivity to anti-APO1-induced apoptosis [1]: significantly less sensitive

- enzymatic activity of wild-type (wt) caspase-8 [3]: enhanced
- co-immunoprecipitation with CLARP ([4]; 293T lysates): co-immunoprecipitated
- interaction with the N-terminal DED-containing domain of CLARP ([4]; CLARP-N): not
- phosphorylation of recombinant FADD [6]: induced phosphorylation
- interaction with the C-terminal caspase-like domain of CLARP [9]: interacted
Molecule: RICK: RIP-like interacting CLARP kinase, protein of 531 amino acids (SEQ ID NO:1)
- induction of apoptosis by expression of RICK ([2]; RICK alone): did not
- apoptosis induced by FADD, CLARP and caspase-8 ([2]; co-expression of wt or mutant RICK): enhanced
- apoptosis promoted by caspase-8 ([2]; co-expression with RICK): augmented
- apoptosis promoted by caspase-10 ([2]; co-expression with RICK): augmented
- apoptosis induced by caspase-8-mt ([2]; co-expression with RICK, Cys377 to Ser mutant): did not augment
- association with multiple apoptosis regulatory proteins (caspase-1, -2, -3, -4, -8, CED-3, CED-4, Bcl-XL, TRAF2, c-IAP-1, c-IAP-2, RAIDD) [5]: did not associate
- activation of NFkB [7]: induction of NFkB
- phosphorylation of FADD in cells [8]: induced the phosphorylation of FADD in the presence of CLARP

- binding result [10]: no binding
B1: C. elegans CED-3, epitope-tagged (pcDNA3-Ced-3-Flag) (enzyme, UniProt P42573 1-503, looked up)
chain: MMRQDRRSLLERNIMMFSSHLKVDEILEVLIAKQVLNSDNGDMINSCGTVREKRREIVKAVQRRGDVAFDAFYDALRSTGHEGLAEVLEPLARSVDSNAVEFECPMSPASHRRSRALSPAGYTSPTRVHRDSVSSVSSFTSYQDIYSRARSRSRSRALHSSDRHNYSSPPVNAFPSQPSSANSSFTGCSSLGYSSSRNRSFSKASGPTQYIFHEEDMNFVDAPTISRVFDEKTMYRNFSSPRGMCLIINNEHFEQMPTRNGTKADKDNLTNLFRCMGYTVICKDNLTGRGMLLTIRDFAKHESHGDSAILVILSHGEENVIIGVDDIPISTHEIYDLLNAANAPRLANKPKIVFVQACRGERRDNGFPVLDSVDGVPAFLRRGWDNRDGPLFNFLGCVRPQVQQVWRKKPSQADILIAYATTAQYVSWRNSARGSWFIQAVCEVFSTHAKDMDVVELLTEVNKKVACGFQTSQGSNILKQMPEMTSRLLKKFYFWPEARNSAV
notes: not shown: position and

- binding result [10]: no binding
B2: TRAF2 (other, UniProt Q12933 1-501, looked up, not shown: small tags and cut ends)
chain: MAAASVTPPGSLELLQPGFSKTLLGTKLEAKYLCSACRNVLRRPFQAQCGHRYCSFCLASILSSGPQNCAACVHEGIYEEGISILESSSAFPDNAARREVESLPAVCPSDGCTWKGTLKEYESCHEGRCPLMLTECPACKGLVRLGEKERHLEHECPERSLSCRHCRAPCCGADVKAHHEVCPKFPLTCDGCGKKKIPREKFQDHVKTCGKCRVPCRFHAIGCLETVEGEKQQEHEVQWLREHLAMLLSSVLEAKPLLGDQSHAGSELLQRCESLEKKTATFENIVCVLNREVERVAMTAEACSRQHRLDQDKIEALSSKVQQLERSIGLKDLAMADLEQKVLEMEASTYDGVFIWKISDFARKRQEAVAGRIPAIFSPAFYTSRYGYKMCLRIYLNGDGTGRGTHLSLFFVVMKGPNDALLRWPFNQKVTLMLLDQNNREHVIDAFRPDVTSSSFQRPVNDMNIASGCPLFCPVSKMEAKNSYVRDDAIFIKAIVDLTGL

- binding result [10]: no binding
B3: caspase-4 (enzyme, UniProt P49662 1-377, looked up, not shown: small tags and cut ends)
chain: MAEGNHRKKPLKVLESLGKDFLTGVLDNLVEQNVLNWKEEEKKKYYDAKTEDKVRVMADSMQEKQRMAGQMLLQTFFNIDQISPNKKAHPNMEAGPPESGESTDALKLCPHEEFLRLCKERAEEIYPIKERNNRTRLALIICNTEFDHLPPRNGADFDITGMKELLEGLDYSVDVEENLTARDMESALRAFATRPEHKSSDSTFLVLMSHGILEGICGTVHDEKKPDVLLYDTIFQIFNNRNCLSLKDKPKVIIVQACRGANRGELWVRDSPASLEVASSQSSENLEEDAVYKTHVEKDFIAFCSSTPHNVSWRDSTMGSIFITQLITCFQKYSWCCHLEEVFRKVQQSFETPRAKAQMPTIERLSMTRYFYLFPGN

- binding result [10]: no binding
B4: caspase-8, epitope-tagged (pcDNA3-caspase-8-AU1) (enzyme, human, UniProt Q14790-4 1-496, looked up, not shown: small tags and cut ends)
chain: MDFSRNLYDIGEQLDSEDLASLKFLSLDYIPQRKQEPIKDALMLFQRLQEKRMLEESNLSFLKELLFRINRLDLLITYLNTRKEEMERELQTPGRAQISAYRFHFCRMSWAEANSQCQTQSVPFWRRVDHLLIRVMLYQISEEVSRSELRSFKFLLQEEISKCKLDDDMNLLDIFIEMEKRVILGEGKLDILKRVCAQINKSLLKIINDYEEFSKGEELCGVMTISDSPREQDSESQTLDKVYQMKSKPRGYCLIINNHNFAKAREKVPKLHSIRDRNGTHLDAGALTTTFEELHFEIKPHDDCTVEQIYEILKIYQLMDHSNMDCFICCILSHGDKGIIYGTDGQEAPIYELTSQFTGLKCPSLAGKPKVFFIQACQGDNYQKGIPVETDSEEQPYLEMDLSSPQTRYIPDEADFLLGMATVNNCVSYRNPAEGTWYIQSLCQSLRERCPRGDDILTILTEVNYEVSNKDDKKNMGKQMPQPTFTLRKKLVFPSD
notes: also called AU1-tagged caspase-8; FLICE
